According to IntAct's records for PubMed 25533949:

B1: Tyrosine--tRNA ligase, cytoplasmic (Homo sapiens), P54577 (parent)
chain: MGDAPSPEEKLHLITRNLQEVLGEEKLKEILKERELKIYWGTATTGKPHVAYFVPMSKIADFLKAGCEVTILFADLHAYLDNMKAPWELLELRVSYYENVIKAMLESIGVPLEKLKFIKGTDYQLSKEYTLDVYRLSSVVTQHDSKKAGAEVVKQVEHPLLSGLLYPGLQALDEEYLKVDAQFGGIDQRKIFTFAEKYLPALGYSKRVHLMNPMVPGLTGSKMSSSEEESKIDLLDRKEDVKKKLKKAFCEPGNVENNGVLSFIKHVLFPLKSEFVILRDEKWGGNKTYTAYVDLEKDFAAEVVHPGDLKNSVEVALNKLLDPIREKFNTPALKKLASAAYPDPSKQKPMAKGPAKNSEPEEVIPSRLDIRVGKIITVEKHPDADSLYVEKIDVGEAEPRTVVSGLVQFVPKEELQDRLVVVLCNLKPQKMRGVESQGMLLCASIEGINRQVEPLDPPAGSAPGEHVFVKGYEKGQPDEELKPKKKVFEKLQADFKISEECIAQWKQTNFMTKLGSISCKSLKGGNIS

Variants of: B1
Settings: with parp1_human PARP1, P09874
parp1_human PARP1, P09874, sequence (P09874 whole entry): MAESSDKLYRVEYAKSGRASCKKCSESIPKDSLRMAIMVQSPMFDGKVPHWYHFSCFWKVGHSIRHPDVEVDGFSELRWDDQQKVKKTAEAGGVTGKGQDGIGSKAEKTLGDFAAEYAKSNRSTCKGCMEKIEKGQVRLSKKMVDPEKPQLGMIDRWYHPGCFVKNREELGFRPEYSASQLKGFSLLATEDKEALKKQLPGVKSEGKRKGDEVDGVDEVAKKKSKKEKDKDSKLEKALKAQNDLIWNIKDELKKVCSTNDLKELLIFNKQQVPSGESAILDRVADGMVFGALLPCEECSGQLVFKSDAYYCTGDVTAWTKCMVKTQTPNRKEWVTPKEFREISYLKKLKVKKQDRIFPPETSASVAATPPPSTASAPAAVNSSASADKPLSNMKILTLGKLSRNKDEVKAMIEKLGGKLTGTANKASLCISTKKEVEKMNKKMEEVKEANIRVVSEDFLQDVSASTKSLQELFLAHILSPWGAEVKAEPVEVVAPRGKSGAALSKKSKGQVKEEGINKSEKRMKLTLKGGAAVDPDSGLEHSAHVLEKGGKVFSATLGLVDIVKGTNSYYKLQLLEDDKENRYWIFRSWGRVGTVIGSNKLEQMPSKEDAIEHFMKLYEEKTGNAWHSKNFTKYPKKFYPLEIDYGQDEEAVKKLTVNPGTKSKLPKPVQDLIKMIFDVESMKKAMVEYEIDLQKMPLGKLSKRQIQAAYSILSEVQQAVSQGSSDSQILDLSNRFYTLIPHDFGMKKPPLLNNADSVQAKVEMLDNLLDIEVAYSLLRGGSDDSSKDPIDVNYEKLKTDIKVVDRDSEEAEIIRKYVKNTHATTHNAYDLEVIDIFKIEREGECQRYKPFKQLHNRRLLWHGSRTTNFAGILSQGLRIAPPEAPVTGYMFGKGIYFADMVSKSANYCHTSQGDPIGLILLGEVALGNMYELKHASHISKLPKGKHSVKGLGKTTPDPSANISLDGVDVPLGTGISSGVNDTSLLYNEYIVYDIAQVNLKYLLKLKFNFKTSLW

Row | effect of a mutation on the interaction | Variant
1 | increasing interaction strength | MGDAPSPEEKLHLITRNLQEVLGEEKLKEILKERELKIYWGTATTGKPHVAYFVPMSKIADFLKAGCEVTILFADLHAYLDNMKAPWELLELRVSYYENVIKAMLESIGVPLEKLKFIKGTDYQLSKEYTLDVYRLSSVVTQHDSKKAGAEVVKQVEHPLLSGLLYPGLQALDEEYLKVDAQFGGIDQRKIFTFAEKYLPALGYSKRVHLMNPMVPGLTGSKMSSSEEESKIDLLDRKEDVKKKLKKAFCEPGNVENNGVLSFIKHVLFPLKSEFVILRDEKWGGNKTYTAYVDLEKDFAAEVVHPGDLKNSVEVALNKLLDPIREKFNTPALKKLASAAAPDPSKQKPMAKGPAKNSEPEEVIPSRLDIRVGKIITVEKHPDADSLYVEKIDVGEAEPRTVVSGLVQFVPKEELQDRLVVVLCNLKPQKMRGVESQGMLLCASIEGINRQVEPLDPPAGSAPGEHVFVKGYEKGQPDEELKPKKKVFEKLQADFKISEECIAQWKQTNFMTKLGSISCKSLKGGNIS [Y341A]
